The text below walks through data of US20180155451A1 (published 2018).

Assay [1] concerns the target T1, FcγRIa extracellular domain with C-terminal His tag (human, UniProt P12314 16-292).
T1 construct: extracellular domain; Expressed in FreeStyle293 cells; used as analyte in Biacore; also called FcgRI; 1a; not shown: His tag at the C terminus
In words: SPR (Biacore), captured antibody, FcγRIa analyte; relative to GpH7-B3/GpL16-k0 = 100. On the technique in general: Surface plasmon resonance follows binding to a sensor surface in real time, without labels.

The target of assay [2] is T1, FcγRIa extracellular domain with …. Briefly: SPR (Biacore), captured antibody, FcγRIa analyte; relative to GpH7-A5/GpH7-B3/GpL16-k0 = 100.

T1 sequence (P12314 16-292): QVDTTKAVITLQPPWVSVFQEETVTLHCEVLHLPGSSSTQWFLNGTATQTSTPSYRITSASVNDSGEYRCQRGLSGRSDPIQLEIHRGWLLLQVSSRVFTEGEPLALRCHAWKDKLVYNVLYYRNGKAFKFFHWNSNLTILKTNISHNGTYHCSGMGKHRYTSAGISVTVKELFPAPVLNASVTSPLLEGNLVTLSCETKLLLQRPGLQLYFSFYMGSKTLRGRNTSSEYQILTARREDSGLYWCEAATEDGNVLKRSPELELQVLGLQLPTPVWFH

B1: GpH7-B3 variant (T335_19Q)/GpL16-k0 (antibody, human IgG1, kappa)
heavy: not shown
light: DIVMTQSPLSLPVTPGEPASISCQASESLVHSNRNTYLHWYLQKPGQSPQLLIYKVSNRFSGVPDRFSGSGSGTDFTLKISRVEAEDVGVYYCSQNTHVPPTFGQGTKVEIERTVAAPSVFIFPPSDEQLKSGTASVVCLLNNFYPREAKVQWKVDNALQSGNSQESVTEQDSKDSTYSLSSTLTLSKADYEKHKVYACEVTHQGLSSPVTKSFNRGEC
notes: Homodimerized; both H chains altered; also called Ho Ab T335_19Q
Turning to B1, in assay [1], the Ho/Con_1a was 105 % of control.

B2: GpH7-A5/GpH7-B3 variant (D265_10E)/GpL16-k0 (antibody, human IgG1, kappa)
heavy 1: not shown
heavy 2: not shown
light: B1 light
notes: Heterodimerized; only the B3 chain altered; also called He Ab D265_10E
As for B2, the He/Con_1a in assay [2] was 101 % of control.

B3: GpH7-B3 variant (Y300_11K)/GpL16-k0 (antibody, human IgG1, kappa)
heavy: not shown
light: B1 light
notes: Homodimerized; both H chains altered; also called Ho Ab Y300_11K
B3: the Ho/Con_1a in assay [1] was 101 % of control.

B4: GpH7-B3 variant (Y300_20W)/GpL16-k0 (antibody, human IgG1, kappa)
heavy: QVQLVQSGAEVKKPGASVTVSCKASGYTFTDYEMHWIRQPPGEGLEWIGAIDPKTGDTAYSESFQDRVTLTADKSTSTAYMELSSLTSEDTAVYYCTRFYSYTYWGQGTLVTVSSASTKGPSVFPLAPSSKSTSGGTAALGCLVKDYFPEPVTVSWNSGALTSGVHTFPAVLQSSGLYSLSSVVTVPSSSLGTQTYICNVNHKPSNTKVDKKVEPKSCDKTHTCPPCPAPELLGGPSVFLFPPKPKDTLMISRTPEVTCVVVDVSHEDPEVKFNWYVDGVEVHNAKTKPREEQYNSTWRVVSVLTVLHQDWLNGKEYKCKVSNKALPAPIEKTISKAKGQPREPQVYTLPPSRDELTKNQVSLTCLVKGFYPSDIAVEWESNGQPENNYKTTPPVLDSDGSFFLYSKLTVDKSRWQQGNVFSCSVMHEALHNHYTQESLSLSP
light: B1 light
notes: Homodimerized; both H chains altered; also called Ho Ab Y300_20W
In the case of B4, in assay [1], the Ho/Con_1a was 110 % of control.

B5: GpH7-B3 variant (Y296_16H)/GpL16-k0 (antibody, human IgG1, kappa)
heavy: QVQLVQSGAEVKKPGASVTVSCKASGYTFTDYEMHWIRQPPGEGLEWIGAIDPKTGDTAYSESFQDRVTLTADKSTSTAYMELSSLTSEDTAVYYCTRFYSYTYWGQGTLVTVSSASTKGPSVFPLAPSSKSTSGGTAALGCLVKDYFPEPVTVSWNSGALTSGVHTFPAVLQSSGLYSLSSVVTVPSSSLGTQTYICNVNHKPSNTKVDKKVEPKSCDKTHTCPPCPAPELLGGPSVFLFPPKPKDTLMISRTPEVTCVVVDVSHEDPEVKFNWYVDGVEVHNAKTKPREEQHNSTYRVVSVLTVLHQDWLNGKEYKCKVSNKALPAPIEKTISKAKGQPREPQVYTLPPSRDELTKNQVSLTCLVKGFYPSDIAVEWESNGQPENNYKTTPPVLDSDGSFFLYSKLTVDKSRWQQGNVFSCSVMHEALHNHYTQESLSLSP
light: B1 light
notes: Homodimerized; both H chains altered; also called Ho Ab Y296_16H
B5: the Ho/Con_1a in assay [1] is 105 % of control.

B6: GpH7-B3 variant (T335_15Y)/GpL16-k0 (antibody, human IgG1, kappa)
heavy: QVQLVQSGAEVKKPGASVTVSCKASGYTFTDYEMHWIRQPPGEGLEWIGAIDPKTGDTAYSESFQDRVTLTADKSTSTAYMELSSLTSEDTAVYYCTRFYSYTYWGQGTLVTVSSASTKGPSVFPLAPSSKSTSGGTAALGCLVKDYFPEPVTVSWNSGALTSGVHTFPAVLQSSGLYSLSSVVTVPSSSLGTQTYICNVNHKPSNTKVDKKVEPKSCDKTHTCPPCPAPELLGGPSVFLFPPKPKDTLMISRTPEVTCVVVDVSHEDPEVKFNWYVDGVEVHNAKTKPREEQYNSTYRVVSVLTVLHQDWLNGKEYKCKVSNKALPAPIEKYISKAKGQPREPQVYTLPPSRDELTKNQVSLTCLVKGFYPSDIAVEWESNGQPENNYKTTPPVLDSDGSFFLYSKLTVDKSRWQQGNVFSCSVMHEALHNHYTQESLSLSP
light: B1 light
notes: Homodimerized; both H chains altered; also called Ho Ab T335_15Y
Turning to B6, in assay [1], the Ho/Con_1a was 106 % of control.

B7: GpH7-A5/GpH7-B3 variant (S337_07I)/GpL16-k0 (antibody, human IgG1, kappa)
heavy 1: not shown
heavy 2: not shown
light: B1 light
notes: Heterodimerized; only the B3 chain altered; also called He Ab S337_07I
For B7, the He/Con_1a in assay [2] was 105 % of control.

B8: GpH7-B3 variant (T335_08L)/GpL16-k0 (antibody, human IgG1, kappa)
heavy: not shown
light: B1 light
notes: Homodimerized; both H chains altered; also called Ho Ab T335_08L
For B8, the Ho/Con_1a in assay [1] is 105 % of control.

B9: GpH7-A5/GpH7-B3 variant (I336_09D)/GpL16-k0 (antibody, human IgG1, kappa)
heavy 1: not shown
heavy 2: not shown
light: B1 light
notes: Heterodimerized; only the B3 chain altered; also called He Ab I336_09D
In the case of B9, the He/Con_1a in assay [2] was 104 % of control.

B10: GpH7-B3 variant (T335_16H)/GpL16-k0 (antibody, human IgG1, kappa)
heavy: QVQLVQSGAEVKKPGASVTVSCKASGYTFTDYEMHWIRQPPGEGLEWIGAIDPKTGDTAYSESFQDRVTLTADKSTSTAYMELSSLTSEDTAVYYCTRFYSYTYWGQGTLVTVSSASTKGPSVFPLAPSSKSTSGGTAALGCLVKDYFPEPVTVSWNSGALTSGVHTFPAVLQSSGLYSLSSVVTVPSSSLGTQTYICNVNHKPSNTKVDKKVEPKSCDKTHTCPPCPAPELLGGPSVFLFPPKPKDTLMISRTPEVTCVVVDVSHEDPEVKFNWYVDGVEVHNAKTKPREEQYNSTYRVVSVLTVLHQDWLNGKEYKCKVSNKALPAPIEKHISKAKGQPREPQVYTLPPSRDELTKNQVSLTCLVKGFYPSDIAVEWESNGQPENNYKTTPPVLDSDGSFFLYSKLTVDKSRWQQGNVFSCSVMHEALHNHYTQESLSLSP
light: B1 light
notes: Homodimerized; both H chains altered; also called Ho Ab T335_16H
Take B10: the Ho/Con_1a in assay [1] is 104 % of control.

B11: GpH7-A5/GpH7-B3 variant (A330_19Q)/GpL16-k0 (antibody, human IgG1, kappa)
heavy 1: not shown
heavy 2: not shown
light: B1 light
notes: Heterodimerized; only the B3 chain altered; also called He Ab A330_19Q
For the molecule B11, the He/Con_1a in assay [2] was 105 % of control.

B12: GpH7-B3 variant (T335_10E)/GpL16-k0 (antibody, human IgG1, kappa)
heavy: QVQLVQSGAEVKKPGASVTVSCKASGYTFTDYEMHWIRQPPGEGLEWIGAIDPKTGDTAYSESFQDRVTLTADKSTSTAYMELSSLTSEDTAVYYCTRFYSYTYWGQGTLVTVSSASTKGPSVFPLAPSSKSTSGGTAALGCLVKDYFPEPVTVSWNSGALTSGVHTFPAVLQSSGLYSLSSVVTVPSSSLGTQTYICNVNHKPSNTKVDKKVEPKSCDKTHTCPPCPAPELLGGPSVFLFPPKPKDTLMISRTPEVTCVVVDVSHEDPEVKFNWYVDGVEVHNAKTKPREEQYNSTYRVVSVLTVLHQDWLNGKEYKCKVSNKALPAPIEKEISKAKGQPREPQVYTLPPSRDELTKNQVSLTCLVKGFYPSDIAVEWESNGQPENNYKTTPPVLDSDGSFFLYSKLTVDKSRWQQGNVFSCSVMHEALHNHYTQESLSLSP
light: B1 light
notes: Homodimerized; both H chains altered; also called Ho Ab T335_10E
Consider B12, for which the Ho/Con_1a in assay [1] is 108 % of control.

B13: GpH7-B3 variant (T335_18N)/GpL16-k0 (antibody, human IgG1, kappa)
heavy: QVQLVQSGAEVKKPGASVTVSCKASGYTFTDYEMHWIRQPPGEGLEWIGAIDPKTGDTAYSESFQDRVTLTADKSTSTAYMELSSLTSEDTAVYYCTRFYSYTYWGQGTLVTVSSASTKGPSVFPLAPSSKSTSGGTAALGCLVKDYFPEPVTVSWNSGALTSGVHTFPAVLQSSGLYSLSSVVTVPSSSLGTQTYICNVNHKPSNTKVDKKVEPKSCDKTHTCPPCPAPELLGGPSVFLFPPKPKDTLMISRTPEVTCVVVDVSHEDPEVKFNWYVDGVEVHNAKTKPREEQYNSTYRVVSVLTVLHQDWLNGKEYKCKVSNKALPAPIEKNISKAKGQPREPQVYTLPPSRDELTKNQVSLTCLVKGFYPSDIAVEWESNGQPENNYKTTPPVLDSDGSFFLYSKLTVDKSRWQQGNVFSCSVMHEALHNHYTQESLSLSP
light: B1 light
notes: Homodimerized; both H chains altered; also called Ho Ab T335_18N
Regarding B13, the Ho/Con_1a in assay [1] is 102 % of control.

B14: GpH7-A5/GpH7-B3 variant (S337_04F)/GpL16-k0 (antibody, human IgG1, kappa)
heavy 1: not shown
heavy 2: not shown
light: B1 light
notes: Heterodimerized; only the B3 chain altered; also called He Ab S337_04F
Regarding B14, the He/Con_1a in assay [2] was 106 % of control.

B15: GpH7-B3 variant (Y300_06M)/GpL16-k0 (antibody, human IgG1, kappa)
heavy: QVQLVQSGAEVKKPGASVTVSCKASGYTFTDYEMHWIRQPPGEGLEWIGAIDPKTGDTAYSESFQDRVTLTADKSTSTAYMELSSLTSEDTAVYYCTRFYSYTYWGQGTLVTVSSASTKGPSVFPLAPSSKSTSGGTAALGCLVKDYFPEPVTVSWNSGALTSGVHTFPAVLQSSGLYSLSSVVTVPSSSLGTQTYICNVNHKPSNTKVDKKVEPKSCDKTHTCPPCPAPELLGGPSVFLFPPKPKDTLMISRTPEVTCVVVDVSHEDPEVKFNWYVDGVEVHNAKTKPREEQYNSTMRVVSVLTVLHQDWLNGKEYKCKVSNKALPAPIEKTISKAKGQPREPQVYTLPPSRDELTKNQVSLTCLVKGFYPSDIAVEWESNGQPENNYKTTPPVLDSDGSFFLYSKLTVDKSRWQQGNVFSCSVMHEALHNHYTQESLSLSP
light: B1 light
notes: Homodimerized; both H chains altered; also called Ho Ab Y300_06M
On to B15, for which the Ho/Con_1a in assay [1] was 111 % of control.

B16: GpH7-B3 variant (T335_20W)/GpL16-k0 (antibody, human IgG1, kappa)
heavy: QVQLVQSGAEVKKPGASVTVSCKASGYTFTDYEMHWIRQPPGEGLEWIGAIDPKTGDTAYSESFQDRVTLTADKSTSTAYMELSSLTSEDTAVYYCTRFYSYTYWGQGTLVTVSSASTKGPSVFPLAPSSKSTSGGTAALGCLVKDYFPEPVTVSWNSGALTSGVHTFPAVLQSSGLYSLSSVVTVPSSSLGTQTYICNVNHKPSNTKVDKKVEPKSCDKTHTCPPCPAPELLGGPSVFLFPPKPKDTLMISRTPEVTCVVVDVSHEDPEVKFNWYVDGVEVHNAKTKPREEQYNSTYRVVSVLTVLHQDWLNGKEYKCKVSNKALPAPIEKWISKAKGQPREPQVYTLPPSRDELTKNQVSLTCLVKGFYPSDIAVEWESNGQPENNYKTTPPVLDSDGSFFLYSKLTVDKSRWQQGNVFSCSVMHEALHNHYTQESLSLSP
light: B1 light
notes: Homodimerized; both H chains altered; also called Ho Ab T335_20W
As to B16, the Ho/Con_1a in assay [1] was 104 % of control.

B17: GpH7-B3 variant (S337_20W)/GpL16-k0 (antibody, human IgG1, kappa)
heavy: not shown
light: B1 light
notes: Homodimerized; both H chains altered; also called Ho Ab S337_20W
With B17, the Ho/Con_1a in assay [1] was 104 % of control.

B18: GpH7-A5/GpH7-B3 variant (H268_10E)/GpL16-k0 (antibody, human IgG1, kappa)
heavy 1: not shown
heavy 2: not shown
light: B1 light
notes: Heterodimerized; only the B3 chain altered; also called He Ab H268_10E
B18: in assay [2], the He/Con_1a is 111 % of control.

B19: GpH7-B3 variant (Y296_20W)/GpL16-k0 (antibody, human IgG1, kappa)
heavy: not shown
light: B1 light
notes: Homodimerized; both H chains altered; also called Ho Ab Y296_20W
For the molecule B19, the Ho/Con_1a in assay [1] is 106 % of control.

B20: GpH7-B3 variant (Y296_11K)/GpL16-k0 (antibody, human IgG1, kappa)
heavy: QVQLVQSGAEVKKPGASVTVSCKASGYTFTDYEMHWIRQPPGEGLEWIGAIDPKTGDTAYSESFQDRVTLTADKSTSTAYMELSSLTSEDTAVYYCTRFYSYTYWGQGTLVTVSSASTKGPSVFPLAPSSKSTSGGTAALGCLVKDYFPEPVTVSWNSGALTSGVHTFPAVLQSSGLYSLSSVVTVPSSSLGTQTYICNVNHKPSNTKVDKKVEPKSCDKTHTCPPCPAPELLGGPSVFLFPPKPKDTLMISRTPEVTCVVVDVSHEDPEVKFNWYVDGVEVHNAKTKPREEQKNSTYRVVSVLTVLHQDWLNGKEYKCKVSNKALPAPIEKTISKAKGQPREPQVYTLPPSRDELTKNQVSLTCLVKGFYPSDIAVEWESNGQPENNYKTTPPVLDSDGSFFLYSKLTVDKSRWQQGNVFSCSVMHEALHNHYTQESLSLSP
light: B1 light
notes: Homodimerized; both H chains altered; also called Ho Ab Y296_11K
Turning to B20, the Ho/Con_1a in assay [1] was 102 % of control.

B21: GpH7-A5/GpH7-B3 variant (A330_01G)/GpL16-k0 (antibody, human IgG1, kappa)
heavy 1: not shown
heavy 2: not shown
light: B1 light
notes: Heterodimerized; only the B3 chain altered; also called He Ab A330_01G
Regarding B21, in assay [2], the He/Con_1a was 106 % of control.

B22: GpH7-A5/GpH7-B3 variant (S337_06M)/GpL16-k0 (antibody, human IgG1, kappa)
heavy 1: not shown
heavy 2: not shown
light: B1 light
notes: Heterodimerized; only the B3 chain altered; also called He Ab S337_06M
B22: the He/Con_1a in assay [2] was 107 % of control.

B23: GpH7-A5/GpH7-B3 variant (H268_13S)/GpL16-k0 (antibody, human IgG1, kappa)
heavy 1: not shown
heavy 2: not shown
light: B1 light
notes: Heterodimerized; only the B3 chain altered; also called He Ab H268_13S
For B23, in assay [2], the He/Con_1a is 109 % of control.

B24: GpH7-B3 variant (S337_15Y)/GpL16-k0 (antibody, human IgG1, kappa)
heavy: not shown
light: B1 light
notes: Homodimerized; both H chains altered; also called Ho Ab S337_15Y
Regarding B24, the Ho/Con_1a in assay [1] is 104 % of control.

B25: GpH7-A5/GpH7-B3 variant (S337_09D)/GpL16-k0 (antibody, human IgG1, kappa)
heavy 1: not shown
heavy 2: not shown
light: B1 light
notes: Heterodimerized; only the B3 chain altered; also called He Ab S337_09D
In the case of B25, the He/Con_1a in assay [2] was 106 % of control.

B26: GpH7-A5/GpH7-B3 variant (I336_13S)/GpL16-k0 (antibody, human IgG1, kappa)
heavy 1: not shown
heavy 2: not shown
light: B1 light
notes: Heterodimerized; only the B3 chain altered; also called He Ab I336_13S
For the molecule B26, the He/Con_1a in assay [2] was 102 % of control.

B27: GpH7-B3 variant (T335_05P)/GpL16-k0 (antibody, human IgG1, kappa)
heavy: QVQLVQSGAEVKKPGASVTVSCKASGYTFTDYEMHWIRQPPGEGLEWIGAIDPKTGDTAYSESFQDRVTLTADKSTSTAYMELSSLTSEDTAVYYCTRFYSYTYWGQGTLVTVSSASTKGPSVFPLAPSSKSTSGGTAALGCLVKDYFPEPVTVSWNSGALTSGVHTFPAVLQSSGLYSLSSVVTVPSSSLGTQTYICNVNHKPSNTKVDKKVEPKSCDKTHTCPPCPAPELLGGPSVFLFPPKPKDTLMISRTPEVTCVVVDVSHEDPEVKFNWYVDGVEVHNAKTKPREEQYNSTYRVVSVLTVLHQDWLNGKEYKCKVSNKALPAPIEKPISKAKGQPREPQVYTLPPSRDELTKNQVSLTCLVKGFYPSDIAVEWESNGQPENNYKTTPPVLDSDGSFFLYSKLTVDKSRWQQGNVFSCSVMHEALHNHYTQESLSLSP
light: B1 light
notes: Homodimerized; both H chains altered; also called Ho Ab T335_05P
As to B27, in assay [1], the Ho/Con_1a is 106 % of control.

B28: GpH7-A5/GpH7-B3 variant (H268_01G)/GpL16-k0 (antibody, human IgG1, kappa)
heavy 1: not shown
heavy 2: not shown
light: B1 light
notes: Heterodimerized; only the B3 chain altered; also called He Ab H268_01G
Take B28: the He/Con_1a in assay [2] was 107 % of control.
